Assay results from doi:10.1101/2023.04.03.535445 (bioRxiv, 2023).

Key:
[1] = target: glycosomal malate dehydrogenase (MDH, residues 1-323) of Trypanosoma cruzi (Trypanosoma cruzi) (UniProt Q4DRD8); assay: ITC
[2] = target: truncated Pex5 containing a single Wxxx(F/Y) motif (residues 314-666; Pex5TPR) (Trypanosoma cruzi) (UniProt Q4DPQ9); assay: ITC
[3] = target: Pex5TPR with a GSGS-spacer between the TPR domain and the Wxxx(F/Y) motif (Trypanosoma cruzi) (UniProt Q4DPQ9); assay: ITC
[4] = target: Pex5 Y358A mutant (Pex5TPR) (Trypanosoma cruzi) (UniProt Q4DPQ9); assay: ITC
[5] = target: MDH with the 62-70 loop replaced with GS-linker (Trypanosoma cruzi); assay: ITC
[6] = target: MDH GSGS-linker mutant (GSGS introduced between PTS1 and MDH) (Trypanosoma cruzi); assay: ITC
[7] = target: Pex5 mutant with a partial deletion of the 457-489 loop (Pex5 Δ470-480) (Trypanosoma cruzi) (UniProt Q4DPQ9); assay: ITC
cryo-EM structure = target: the molecule itself; assay: cryo-EM structure

## Pex5 P490R mutant (from UniProt Q4DPQ9 316-668) (domain or fragment)
[1]
  fold decrease in affinity against wild type Pex5: > 3 fold

## N-terminal domain of Pex14 (Pex14NTD; residues 21-85) of Trypanosoma cruzi (domain or fragment)
[2]
  Kd: 53 nM
[3]
  fold decrease in affinity against wild type Pex5: 3.5 fold
[4]
  fold decrease in affinity against wild type Pex5: 1.5 fold

## Pex14NTD(A48F) (domain or fragment)
[2]
  fold decrease in affinity against wild type Pex14NTD: 2 fold

## truncated Pex5 containing a single Wxxx(F/Y) motif (residues 314-666; Pex5TPR) (from UniProt Q4DPQ9 316-668) (domain or fragment)
[5]
  fold decrease in affinity against wild type MDH: 2.5 fold
[1]
  Kd: 435 nM
[6]
  fold increase in affinity against wild type MDH: 4 fold

## H-ARSKL-OH [short peptide encompassing PTS1 of MDH (residues 319-ARSKL-323)]
[7]
  fold decrease in affinity against wild type Pex5: 3 fold

B1: glycosomal malate dehydrogenase (MDH, residues 1-323) of Trypanosoma cruzi (enzyme, UniProt Q4DRD8 1-323, looked up)
chain: MVNVAVIGAAGGIGQSLSLLLLRELPFGSTLSLYDVVGAPGVAADLSHIDRAGITVKHAAGKLPPVPRDPALTELAEGVDVFVIVAGVPRKPGMTRDDLFNVNAGIVMDLVLTCASVSPNACFCIVTNPVNSTTPIAAQTLRKIGVYNKNKLLGVSLLDGLRATRFINNARHPLVVPYVPVVGGHSDVTIVPLYSQIPGPLPDESTLKEIRKRVQVAGTEVVKAKAGRGSATLSMAEAGARFTMHVVKALMGLDTPMVYAYVDTDGEHECPFLAMPVVLGKNGIERRLPIGPITTVEKEMLEEAVGVVKKNIAKGETFARSKL
cryo-EM structure
  stoichiometry N: 4
